Test results from the supplement of paper PMC9170038.

System: MS2 coat protein
Assay: apparent KD of MS2 coat protein; higher = weaker reporter binding
Conditions: Eterna round: R107
Procedure, shortened: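 SNAP-549-labelled MS2 coat protein was titrated onto designed RNA switches that had been transcribed on-chip from Illumina sequencing clusters. Amounts doubled from 0.7 or 1.5 nM to 3 µM in 100 mM Tris-HCl pH 7.5, 80 mM KCl, 4 mM MgCl2, with constant ligand or without. Apparent KD is the median per design of normalised cluster binding-curve fits.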

[1] = input ligand: theophylline 20 uM
[2] = input ligand: tryptophan 2.4 mM
[3] = input ligand: theophylline 2 mM

Sequence	apparent KD of MS2 coat protein (input ligand: arginine 13.2 mM) [nM]	apparent KD of MS2 coat protein [1] [nM]	apparent KD of MS2 coat protein [2] [nM]	apparent KD of MS2 coat protein (input ligand: none) [nM]	apparent KD of MS2 coat protein [3] [nM]
GAUGAACUAUUUGAUACCAGACUACAUGAGGAUCACCCAUGUGCGCGUCGUCCUCUGCCAGUCCCUUGGCAGCAAAUAGUUUAUC [XTheo B #9]	69.8	140	85.2	–	–
GCACAAGAUGGAAGGAGCGCUGGUAAAGGUCACAUGAGGAUCACCCAUGUGCUCCUUGCCGAGCAGGUAGGUCGCCAUCUUGUGC [SSAB NP+V+V2 #3]	14.1	16.4	11.7	11.7	13.3
GCACGGUAGUCGGCCGCCACUGAAACAUGUGUCUACAUGAGGAUCACCCAUGUGGGUGUGUUUUGUAGGACCGGGACAAGACCCG [#11 Same State - Tryptophan B]	16.8	28.1	17.2	19	18
GCAUCCUAGUCGGCCGCCACUGCAGGAUCGGCGGCAGAUCCUCAACAUGAGGAUCACCCAUGUAGCAGGACCGGGACUAGGAUGC [(Trp1)-(TM)''-(TM)'-(Ms2)-(Trp2)_Design2]	36.3	80.3	99.8	91.6	48.1
GCCUAGCAUCGAAGGAGCGGGCAUUACGCGCGAAAGCGCGAUGCACGAGGAUCACCCGUGUCCCAGGUAGGUCGCGAUGCUAGGC [SSAB Alternative Aptamer #4 V+V2]	153	368	343	508	527
GCGAUGGAGCGAAGGAGCGUGCUAGUACAUGAGGAUCACCCAUGUGAGUCGCAUCGCUAAGCACAGGUAGGUCGCGCUCCAUCGC [EAB NP+V+V2 #9]	44.6	122	87.6	94.2	145
GCGAUGGAGCGAAGGAGCGUGCUGGUACAUGAGGAUCACCCAUGUGAACCGCAGCGCUAAGCACAGGUAGGUCGCGCUCCAUCGC [EAB NP+V+V2 #14]	102	28.4	41.9	28.8	23
GCGAUGGAGCGAAGGAGCGUGCUGGUACAUGAGGAUCACCCAUGUGAGUCGCAUCGCUAAGCACAGGUAGGUCGCGCUCCAUCGC [EAB NP+V+V2 #10]	48.6	85	66.5	58.4	83
GCGCGGCGAGUGCGGCGUGUUCCGCUCCGUCGAGGACCGGUACGGCCGCCACUCGACAUGAGGAUCACCCAUGUCGCCGCGCGCG [Exclusion - Tryptophan A Attempt #3]	13.9	22.9	13.5	13.3	48.3
GCGGUCCACUUGGAUACCAGCAGAUUAAUAAACAUGAGGAUCACCCAUGUAAGCGCCUUGUGCCCUUGGCAGCCAGGGUGGUCAG [theeternabot_sameState_MS2_Theo_B_50]	55.5	136	88.4	–	–
GCUAGCCGAAAGGCUAGCAAGGCUACAGAAGGAGCGUGCGAAAGCACAGGUAGGUCGCUGAGCUUGAGGAUCACCCAAGUUGCCU [SSAA - Alter Amptam #1 V+V2]	26.2	57.2	64	66.7	48.6
GCUAGGUCAUCGGCCGCCACUAACGACGGUUCGAACAUGAGGAUCACCCAUGUGCCACAUGCGCAUAGGACCGGGAUGACCUAGC [SSTB NP+V+V2 #6]	35.7	24.3	11.7	19.5	21.2
GCUAGUGGCAGAAGGAGCGACAUUUAUAGUGGUCGAUACAUGAGGAUCACCCAUGUACUAUGUCAGGUAGGUCGCUGCCACUAGC [EAB NP+V+V2 #5]	31.6	44.8	32.5	35.1	34
GCUCACAUGAGGAUCACCCAUGUACGUCCGCGAGGACCGGUACGGCCGCCACUCGUGUUAGCUUCAAACUUGUUAGUGUUAAACA [Atleerge]	31.3	53.4	–	–	68.4
GGACUAACCAGAAGGAGCGGCACAAGCAGAAACUGCAAUCCUCCGCACGAGGAUCACCCGUGUCAGGUAGGUCGCUGGUUAGUCG [ArgBX 28]	49.2	74.6	63.7	56.8	80.4
GGACUAACCAGAAGGAGCGGCACGCAGAAACUGCAAAAUCCUCCGCACGAGGAUCACCCGUGUCAGGUAGGUCGCUGGUUAGUCG [ArgBX 28]	36.7	39.8	33.8	32.2	37.8
GGAUAGAUAGGAGAUACCAGAUACAUCAACAUGAGGAUCACCCAUGUGUCUGCACUAAGUGUCCCUUGGCAGCUCGGAGAUCUGA [#16 Same State - Theophylline B]	24	33.7	32.4	–	–
GGAUAGGACACGGCCGCCACUAGCUAGGAUACUAGCAACAUUUCCUCGCUUGAGGAUCACCCAAGUAGGACCGGGUGUCCUAUCG	302	446	482	560	476
GGAUAGGACACGGCCGCCACUGCGCUAGGAUACUAGAACAUUUCCUCACAUGAGGAUCACCCAUGUAGGACCGGGUGUCCUAUCG	34	76.7	–	–	60.4
GGAUAGGACAGAAGGAGCGACAUGGCAGAAACUGCAAUCCUCCUACACGAGGAUCACCCGUGUCAGGUAGGUCGCUGUCCUAUCG [ArgXB 12 #Zipper #MS2Left #StaticStem #Blueprint]	25.6	34.8	27.4	24.7	36.9

Sequence	apparent KD of MS2 coat protein (input ligand: arginine 13.2 mM) [nM]	apparent KD of MS2 coat protein [1] [nM]	apparent KD of MS2 coat protein [2] [nM]	apparent KD of MS2 coat protein (input ligand: none) [nM]	apparent KD of MS2 coat protein [3] [nM]
GGAUUCGGCACGGCCGCCACUGCGGUGGUGUGACAUGAGGAUCACCCAUGUUGUCAUGCGGCCCUUAGGACCGGGUGGCGUUUCC [#1 Exclusion - Tryptophan B Attempt #21 (HarryS)]	47.1	76.2	–	–	73.3
GGCAAAAGGUCGGCCGCCACUGUAGGAUGUGUUCUUUCACAUGAGGAUCACCCAUGUUGUUAUUAUAGGACCGGGAUUUUAGGAC [39MS split4]	20.6	31.7	–	–	23.4
GGCCAAAAGGCGGCCGCCACUCAAGAGUAGCAUGGAAAGACAUGAGGAUCACCCAUGUAAAGAAAGAGGACCGGGCCAAAAGGCC	28.4	141	193	117	262
GGCGCGAGCCAACAUGAGGAUCACCCAUGUCGAGGACCGGUACGGCCGCCACUCGAACGAGUGGCGCGCGCGCGCGCGCGCGCGC [Vaa]	12.2	17.9	28.6	15.9	19
GGCGCUGCGUCGGCCGCCACUAGCGGGUAAUGGGUGUACAUGAGGAUCACCCAUGUAAUAUGGCCUAGGACCGGGACGUGGCGCC [Moose]	259	415	620	427	465
GGGAAAGAAUGUGAUACCAGAGAACCGGUCUCCAUCAAUAUACAUGAGGAUCACCCAUGUCUCCCUUGGCAGCACCAUCAUCAAA [Exclusion Theophylline B GF 27]	21	28.3	22	–	–
GGGAGGUAGGCGGCCGCCACUGAUUUUCAUAUAUAUAUAACAUGAGGAUCACCCAUGUAGAUAUACAGGACCGGGCCUAUUUUUU [aaaF]	30.2	21.9	14.2	18.8	18.2
GGGCAAGAGGGAAGGAGCGUCGGCUGAGUAACAUGAGGAUCACCCAUGUAGCACAUAGUGUGGCAGGUAGGUCGCCCUCUGCCCU [SS-ArgB7]	17.5	16.9	13.2	11.3	13.7
GGGCAAGAGGGAAGGAGCGUUAGCUGAGUCACAUGAGGAUCACCCAUGUCGCACAUAGUAUGACAGGUAGGUCGCCCUCUACCCU [SS-ArgB14]	17.7	28.7	16.8	15.6	18.2
GGGCCCGGCCGAAAGGCCGGGCCCGCUGAAGGAGCGGGAAAUAACCCAGGUAGGUCGCAGAGAUCCACAUGAGGAUCACCCAUGU [#26 Exclusion - Arginine A]	38.7	64.1	44.4	26.5	68.1
GGGCUCGGAGUGCGGCGUGUUCCGCUCCGUCGAGGACCGGUACGGCCGCCACUCGACAUGAGGAUCACCCAUGUCCGAGCGCGCG [#1 Exclusion - Tryptophan A Attempt #6 (HarryS)]	19.2	41.7	9.64	21.2	51.4
GGGUCGGGCGCGGCCGCCACUGCGGUGAUGUGACAUGAGGAUCACCCAUGUUGUCAUGUGGCACAUAGGACCGGGCGCCCGGCCC [#1 Exclusion - Tryptophan B Attempt #8 (HarryS)]	34.7	46.8	29.1	29.1	34.7
GGUACAUGAGGAUCACCCAUGUAUUAGUGCCGAGGACCGGUACGGCCGCCACUCGCUUCACAUGAGGAUCACCCAUGUGUCACAG [SSTA DOUBLE!!! :-D #13]	22.4	38.4	–	–	39.7
GGUAGCAGGACUGAUACCAGUCCAGCGAAUCAUACGACGCAACAUGAGGAUCACCCAUGUGACCCUUGGCAGCAGACUGCUACCG [Same State Theophylline B GF 28]	29.4	24.8	26.7	–	–
GGUGGCGGGACUGAUACCAGCCACCACCGAUAGACCACAUGAGGAUCACCCAUGUUGGGUGGCCCUUGGCAGCAGUCUUGCGGCG [#1 Same State - Theophylline B Attempt #15 (HarryS)]	85.5	491	1290	527	81.5
GGUUCAUCGUCGGCCGCCACUCACAUGAGGUGGAGCUGUAAACAUGAGGAUCACCCAUGUUGUUAGAGGACCGGGACGUGACGGC [theeternabot_exclusion_MS2_Trp_B_6]	25.5	43.4	–	–	42.1
GUAGCGACGACGGCCGCCACUCACAGGUGAGGGUAGACCAACCUUCACAUGAGGAUCACCCAUGUGAGGACCGGGUUGUCGCUAC [#12 Exclusion Tryptophan B]	57.5	109	168	79	81.4
GUAGGUCACCUCAUGAGACCUACCCUGGAAGGAGCGAGCGAAAGCUCAGGUAGGUCGCCAGAAACAUGAGGAUCACCCAUGUAAU [(A)''-(M)'-(A)'-(Arg1)-(Arg2)-(M1)-(M2)_Design3]	29.4	150	44.6	51.1	190
GUAGGUCAGUGAUCCCGACCUACACUGGAAGGAGCGAGCGAAAGCUCAGGUAGGUCGCCAGAAACAUGAGGAUCACCCAUGUAAU [(A)''-(M)'-(A)'-(Arg1)-(Arg2)-(M1)-(M2)_Design1]	76.1	153	118	172	219
